Results: US20240132578A1

Columns and labels:
Experiment in all cases: cell-based or functional assay
[1] = biological target: HIV-1 Env of isolate 93WR029 (pseudovirus) (HIV-1)
[2] = biological target: HIV-1 Env of isolate MGRM-AE-005 (pseudovirus) (HIV-1)
[3] = biological target: HIV-1 Env of isolate 92UG031 (pseudovirus) (HIV-1)
[4] = biological target: HIV-1 Env of isolate 92WR026 (pseudovirus) (HIV-1)
[5] = biological target: HIV-1 Env of isolate 93UG077 (pseudovirus) (HIV-1)
[6] = biological target: HIV-1 Env of pseudovirus isolate APV-6 (clade B) (HIV-1)
[7] = biological target: HIV-1 Env of isolate MGRM-AE-004 (pseudovirus) (HIV-1)
[8] = biological target: HIV-1 Env of isolate 92WR021 (pseudovirus) (HIV-1)
[9] = biological target: HIV-1 Env of isolate 92WR024 (pseudovirus) (HIV-1)
[10] = biological target: HIV-1 Env of isolate MGRM-AE-006 (pseudovirus) (HIV-1)
[11] = biological target: HIV-1 92RW020 Env (HIV-1)
[12] = biological target: HIV-1 Env of isolate 92WR020 (pseudovirus) (HIV-1)
[13] = biological target: HIV-1 Env of isolate 94UG103 (pseudovirus) (HIV-1)
[14] = biological target: HIV-1 Env of isolate 92UG037 (pseudovirus) (HIV-1)
[15] = biological target: HIV-1 Env of isolate MGRM-Chronic-B-010 (HIV-1)
[16] = biological target: HIV-1 Env of isolate MGRM-Chronic-B-012 (HIV-1)
[17] = biological target: HIV-1 Env of isolate QH0692.42 (HIV-1)
[18] = biological target: HIV-1 Env of isolate JRCSF (HIV-1) (UniProt P20871)
[19] = biological target: HIV-1 Env of isolate THR0.18 (HIV-1)
[20] = biological target: HIV-1 envelope glycoprotein (Env) of isolate MG RM-AG-006 (HIV-1)
[21] = biological target: HIV-1 Env of isolate 93IN905 (HIV-1)
[22] = biological target: HIV-1 Env of isolate SF162 (HIV-1) (UniProt P19550)
[23] = biological target: HIV-1 Env of isolate VLGCB3 (HIV-1)
[24] = biological target: HIV-1 Env of isolate MGRM-Chronic-B-024 (HIV-1)
[25] = biological target: HIV-1 Env of isolate MGRM-Chronic-B-023 (HIV-1)
[26] = biological target: HIV-1 Env of isolate MGRM-Chronic-B-011 (HIV-1)
[27] = biological target: HIV-1 Env of isolate 97ZA012 (HIV-1)
[28] = biological target: HIV-1 Env of isolate NL43 (HIV-1)
[29] = biological target: HIV-1 Env of isolate MGRM-Chronic-B-018 (HIV-1)
[30] = biological target: HIV-1 Env of isolate TRJ04551.58 (HIV-1)
[31] = biological target: HIV-1 Env of isolate SC422661.8 (HIV-1)
[32] = biological target: HIV-1 Env of isolate MGRM-Chronic-B-020 (HIV-1)
[33] = biological target: HIV-1 Env of isolate PVO.4 (HIV-1)
[34] = biological target: HIV-1 Env of isolate 98IN022 (HIV-1)
[35] = biological target: HIV-1 Env of isolate TRO.11 (HIV-1)
[36] = biological target: HIV-1 Env of isolate MGRM-Chronic-B-017 (HIV-1)
[37] = biological target: HIV-1 Env of isolate 93MW959 (HIV-1)

PGT-143 (4980_N08) (antibody), sequence (VH): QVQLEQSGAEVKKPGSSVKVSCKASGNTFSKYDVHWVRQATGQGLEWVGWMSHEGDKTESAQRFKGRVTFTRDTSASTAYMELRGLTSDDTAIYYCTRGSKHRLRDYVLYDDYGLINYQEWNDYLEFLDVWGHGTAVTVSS
PGT-143 (4980_N08) (antibody), sequence (VL): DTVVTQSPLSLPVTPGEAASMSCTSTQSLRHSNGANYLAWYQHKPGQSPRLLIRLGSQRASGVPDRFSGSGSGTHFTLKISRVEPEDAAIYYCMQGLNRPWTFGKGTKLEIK
PGT-142 (4995_E20) (antibody), sequence (VH): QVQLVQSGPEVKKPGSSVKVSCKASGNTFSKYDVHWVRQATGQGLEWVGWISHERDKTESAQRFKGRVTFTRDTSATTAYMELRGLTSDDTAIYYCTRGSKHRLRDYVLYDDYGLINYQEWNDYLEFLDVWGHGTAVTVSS
PGT-142 (4995_E20) (antibody), sequence (VL): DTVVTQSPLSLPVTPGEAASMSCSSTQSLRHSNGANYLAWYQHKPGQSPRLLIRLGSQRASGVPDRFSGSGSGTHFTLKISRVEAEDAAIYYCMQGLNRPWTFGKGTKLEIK
4993_K13 (PGT-141) (antibody), sequence (VH): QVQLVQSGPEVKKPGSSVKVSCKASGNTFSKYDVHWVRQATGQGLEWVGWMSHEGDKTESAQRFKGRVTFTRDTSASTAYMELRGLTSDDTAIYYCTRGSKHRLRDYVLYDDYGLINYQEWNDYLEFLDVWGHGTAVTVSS
4970_K22 (PGT-144) (antibody), sequence (VH): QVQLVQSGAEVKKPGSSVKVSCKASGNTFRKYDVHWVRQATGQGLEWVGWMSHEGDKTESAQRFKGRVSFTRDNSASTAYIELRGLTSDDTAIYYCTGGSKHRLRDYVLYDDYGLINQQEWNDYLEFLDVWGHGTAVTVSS
4970_K22 (PGT-144) (antibody), sequence (VL): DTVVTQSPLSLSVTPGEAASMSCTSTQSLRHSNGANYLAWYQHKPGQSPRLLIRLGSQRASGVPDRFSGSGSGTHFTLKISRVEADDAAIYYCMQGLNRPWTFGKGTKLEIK

Substance | IC50 (µg/mL), single-round pseudovirus neutralization [1] | IC50 (µg/mL), single-round pseudovirus neutralization [2] | IC50 (µg/mL), single-round pseudovirus neutralization [3] | IC50 (µg/mL), single-round pseudovirus neutralization [4] | IC50 (µg/mL), single-round pseudovirus neutralization [5] | IC50, pseudovirus neutralization [6] | IC50 (µg/mL), single-round pseudovirus neutralization [7] | IC50 (µg/mL), single-round pseudovirus neutralization [8] | IC50 (µg/mL), single-round pseudovirus neutralization [9] | IC50 (µg/mL), single-round pseudovirus neutralization [10] | IC50, pseudovirus neutralization [11] | IC50 (µg/mL), single-round pseudovirus neutralization [12] | IC50 (µg/mL), single-round pseudovirus neutralization [13] | IC50 (µg/mL), single-round pseudovirus neutralization [14] | IC50, pseudovirus neutralization [15] | IC50, pseudovirus neutralization [16] | IC50, pseudovirus neutralization [17] | IC50, pseudovirus neutralization [18] | IC50, pseudovirus neutralization [19] | IC50 [20] | further results
4970_K22 (PGT-144) (antibody) | 4.39 µg/mL | > 50 µg/mL | 2.17 µg/mL | 32.7 µg/mL | > 50 µg/mL | > 50 µg/mL | 0.104 µg/mL | > 50 µg/mL | 16.3 µg/mL | > 50 µg/mL | > 10 µg/mL | > 50 µg/mL | > 50 µg/mL | 8.24 µg/mL | – | – | – | – | – | – | –
PGT-143 (4980_N08) (antibody) | – | – | – | – | – | – | – | – | – | – | – | – | – | – | > 50 µg/mL | > 50 µg/mL | > 50 µg/mL | 7 ng/mL | 0.016 µg/mL | > 50 µg/mL | IC50, pseudovirus neutralization [21]: 2 ng/mL; IC50, pseudovirus neutralization [22]: > 50 µg/mL; IC50, pseudovirus neutralization [23]: > 50 µg/mL; IC50, pseudovirus neutralization [24]: 10 ng/mL; IC50, pseudovirus neutralization [25]: 0.236 µg/mL; IC50, pseudovirus neutralization [26]: 1.56 µg/mL; IC50, pseudovirus neutralization [27]: > 50 µg/mL; IC50, pseudovirus neutralization [28]: > 50 µg/mL; IC50, pseudovirus neutralization [29]: 0.377 µg/mL; IC50, pseudovirus neutralization [30]: > 50 µg/mL; IC50, pseudovirus neutralization [31]: 2.02 µg/mL; IC50, pseudovirus neutralization [32]: > 50 µg/mL; IC50, pseudovirus neutralization [33]: 0.162 µg/mL; IC50, pseudovirus neutralization [34]: 1 ng/mL; IC50, pseudovirus neutralization [35]: 0.219 µg/mL; IC50, pseudovirus neutralization [36]: 0.145 µg/mL; IC50, pseudovirus neutralization [37]: 2 ng/mL
4980_N08 (PGT-143) (antibody) | 0.053 µg/mL | > 50 µg/mL | 0.095 µg/mL | 5.36 µg/mL | > 50 µg/mL | 14 µg/mL | 0.002 µg/mL | > 50 µg/mL | 0.122 µg/mL | > 50 µg/mL | > 10 µg/mL | > 50 µg/mL | > 50 µg/mL | 0.854 µg/mL | – | – | – | – | – | – | –
PGT-142 (4995_E20) (antibody) | – | – | – | – | – | – | – | – | – | – | – | – | – | – | > 50 µg/mL | > 50 µg/mL | > 50 µg/mL | 10 ng/mL | 0.012 µg/mL | > 50 µg/mL | IC50, pseudovirus neutralization [21]: 1 ng/mL; IC50, pseudovirus neutralization [22]: > 50 µg/mL; IC50, pseudovirus neutralization [23]: > 50 µg/mL; IC50, pseudovirus neutralization [24]: 5 ng/mL; IC50, pseudovirus neutralization [25]: 0.486 µg/mL; IC50, pseudovirus neutralization [26]: 0.994 µg/mL; IC50, pseudovirus neutralization [27]: > 50 µg/mL; IC50, pseudovirus neutralization [28]: > 50 µg/mL; IC50, pseudovirus neutralization [29]: 0.323 µg/mL; IC50, pseudovirus neutralization [30]: > 50 µg/mL; IC50, pseudovirus neutralization [31]: 3.15 µg/mL; IC50, pseudovirus neutralization [32]: > 50 µg/mL; IC50, pseudovirus neutralization [33]: 0.066 µg/mL; IC50, pseudovirus neutralization [34]: 1 ng/mL; IC50, pseudovirus neutralization [35]: 0.27 µg/mL; IC50, pseudovirus neutralization [36]: 0.076 µg/mL; IC50, pseudovirus neutralization [37]: 1 ng/mL
4993_K13 (PGT-141) (antibody) | 0.019 µg/mL | > 50 µg/mL | 0.093 µg/mL | 1.78 µg/mL | > 50 µg/mL | 14.2 µg/mL | > 50 µg/mL | > 50 µg/mL | 0.175 µg/mL | > 50 µg/mL | > 10 µg/mL | > 50 µg/mL | > 50 µg/mL | 1.28 µg/mL | – | – | – | – | – | – | –
